Reference: patent US20250075002A1

Tests used:
[1] = target: Cyno MUC1 (full length), on cells (cyno); assay: flow cytometry on HEK293/cyno MUC1 cells
[2] = target: MUC1 as expressed on normal activated human T cells (human) (UniProt P15941); assay: FACS, PHA-L-activated human PBMC, live αβTCR+ gate, Donor 191180405C; antibody 10 µg/mL by paragraph 182
[3] = target: MUC1 as expressed on normal activated human T cells (human) (UniProt P15941); assay: FACS, PHA-L-activated human PBMC, live αβTCR+ gate, Donor 190980805C; antibody 10 µg/mL by paragraph 182

Cyno MUC1 (full length), on cells (cyno), sequence (chain, as listed by the source limits assumed, form in doubt): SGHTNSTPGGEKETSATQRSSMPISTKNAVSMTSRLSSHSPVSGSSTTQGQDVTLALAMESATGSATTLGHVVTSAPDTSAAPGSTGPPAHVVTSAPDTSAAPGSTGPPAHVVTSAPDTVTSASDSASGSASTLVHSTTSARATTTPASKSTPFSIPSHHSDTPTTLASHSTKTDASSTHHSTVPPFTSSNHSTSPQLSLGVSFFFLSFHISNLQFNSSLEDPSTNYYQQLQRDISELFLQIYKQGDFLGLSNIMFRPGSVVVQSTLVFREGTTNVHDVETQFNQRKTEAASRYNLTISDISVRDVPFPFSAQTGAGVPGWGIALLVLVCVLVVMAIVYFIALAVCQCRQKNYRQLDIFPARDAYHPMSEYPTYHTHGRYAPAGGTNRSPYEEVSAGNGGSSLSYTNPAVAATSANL
MUC1 as expressed on normal activated human T cells (human), sequence (P15941 24-1255): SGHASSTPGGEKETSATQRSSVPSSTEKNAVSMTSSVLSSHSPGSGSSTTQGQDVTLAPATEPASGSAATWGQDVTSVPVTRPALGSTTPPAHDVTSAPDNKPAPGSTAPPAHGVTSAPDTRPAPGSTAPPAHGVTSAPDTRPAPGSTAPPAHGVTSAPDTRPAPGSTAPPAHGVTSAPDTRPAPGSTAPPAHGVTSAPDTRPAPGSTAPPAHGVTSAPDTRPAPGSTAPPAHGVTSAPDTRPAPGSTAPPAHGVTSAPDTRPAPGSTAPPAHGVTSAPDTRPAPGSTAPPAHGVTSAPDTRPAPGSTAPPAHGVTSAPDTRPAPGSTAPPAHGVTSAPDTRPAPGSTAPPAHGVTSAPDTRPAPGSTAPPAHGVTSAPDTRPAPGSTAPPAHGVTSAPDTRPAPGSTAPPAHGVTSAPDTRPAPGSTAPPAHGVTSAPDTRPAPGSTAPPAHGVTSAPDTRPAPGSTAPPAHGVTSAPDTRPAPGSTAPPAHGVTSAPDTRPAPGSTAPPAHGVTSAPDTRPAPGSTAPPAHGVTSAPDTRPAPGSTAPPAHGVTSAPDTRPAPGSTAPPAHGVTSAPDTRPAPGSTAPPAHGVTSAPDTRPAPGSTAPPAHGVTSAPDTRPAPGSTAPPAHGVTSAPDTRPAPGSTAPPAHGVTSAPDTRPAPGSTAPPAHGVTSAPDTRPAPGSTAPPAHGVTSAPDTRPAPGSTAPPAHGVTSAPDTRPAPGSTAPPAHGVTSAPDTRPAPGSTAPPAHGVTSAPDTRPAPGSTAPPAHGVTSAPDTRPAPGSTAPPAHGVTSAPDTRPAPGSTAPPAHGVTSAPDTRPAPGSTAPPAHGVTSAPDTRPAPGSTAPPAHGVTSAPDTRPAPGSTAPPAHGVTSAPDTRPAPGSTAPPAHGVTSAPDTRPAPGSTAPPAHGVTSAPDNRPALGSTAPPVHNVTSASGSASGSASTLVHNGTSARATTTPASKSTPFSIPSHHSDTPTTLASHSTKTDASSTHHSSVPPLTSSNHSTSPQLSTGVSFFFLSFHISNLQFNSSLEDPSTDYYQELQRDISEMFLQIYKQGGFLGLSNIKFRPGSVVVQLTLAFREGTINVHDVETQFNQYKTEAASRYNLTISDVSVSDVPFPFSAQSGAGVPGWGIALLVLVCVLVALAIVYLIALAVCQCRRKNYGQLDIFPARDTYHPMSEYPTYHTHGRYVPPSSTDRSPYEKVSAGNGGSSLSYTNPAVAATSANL

B1: chBG138P (antibody, V domains shown)
VH: QVQLLQSGAELARPGASVKMSCKASGYTFTTYTMHWIKQRPGQGLEWIGYINPGSDYTHYNQKFKDKATLTADKSSSTAYMHLYSLTSEDSAVYYCARQGNYAAYYFDYWGQGTTLTVSS
VL: DIQMTQSPASLSASVGETVTITCRASGNIHNFLVWYQQKQGKSPQLLVYNAKTLTDGVPSRFSGSGSGTQYSLKIKSLQPEDFGTYYCQNFWNVPFTFGSGTKLEIK
- EC50 [1]: 7.55 nM

B2: huBG138P-Hz4 (antibody, from another filing, V domains shown)
VH: QVQLVQSGAEVKKPGASVKVSCKASGYTFTTYTMHWVRQAPGQGLEWMGYINPGSDYTHYNQKFKDRVTITADKSASTAYMELSSLRSEDTAVYYCARQGNYAAYYFDYWGQGTLVTVSS
VL: DIQMTQSPSSLSASVGDRVTITCRASGNIHNFLVWYQQKPGKSPKLLIYNAKTLTSGVPSRFSGSGSGTQYTLTISSLQPEDVATYYCQNFWNVPFTFGQGTKLEIK
- percent of αβTCR+ cells in the MUC1-positive gate (dashed box) [2]: 2.3%
- percent of αβTCR+ cells in the MUC1-positive gate (dashed box) [3]: 2.4%

B3: chBG346P (antibody, V domains shown)
VH: EVQLQQSGAELVKPGASVKISCKASGYTFTNYWMNWVRQRPGQGLEWIGEIDPSDSYTNNNQKFKDKATLTVDKSSSTAYMQLSSLTSEDSAVYYCARGRRTGFAYWGQGTLVTVSS
VL: DIQMTQSPASLSVSVGETVTITCRASENIYSNLAWYQKKQGKSPQLLVYAATNLADGVPSRFSGSGSGTQYSLKINSLQSEDFGNYYCQHFWGTPYTFGGGTKLEIK
- EC50 [1]: 41.8 nM

B4: chBG219P (antibody, V domains shown)
VH: EVQLVESGGGLVKPGGSLKLSCAASGFTFNDYIMSWVRQTPEKRLEWVATVSSGGDNTYYPDSVKGRFTISRDNAKNNLYLQMSSLRSEDTALYYCTRYGGLGAMDYWGQGTSVTVSS
VL: DIVMTQSPASLSASVGETVTITCRASGNIHNYLTWYQQKQGKSPQLLVYNAKTLADGVPSRFSGSGSGPQYSLKINSLQPEDFGSYYCQHFWSVPYTFGGGTRLEIK
- EC50 [1]: 12.7 nM
